US20190002511A1
Where two headings read alike, the source gives them in different places.

What was measured:
[1] = target: human α-thrombin (recombinant) (human), P00734; assay: cell-based or functional assay
[2] = target: human α-thrombin (recombinant) (human), P00734; assay: thrombin amidolytic assay with S2238, Morrison tight-binding fit
[3] = target: human α-thrombin (recombinant) (human), P00734; assay: thrombin amidolytic assay with S2238; column headed Affinity (nM)
[4] = target: human α-thrombin (recombinant) (human), P00734; assay: assay not named; the printed µM is most likely a misprint of pM (compare Table 5 and paragraph 9)
[5] = target: human α-thrombin (recombinant) (human), P00734; assay: comparison of Ki values
[6] = target: human α-thrombin (recombinant) (human), P00734; assay: cell-based or functional assay; remark: listed apart in the source

IC50, inhibition of thrombin amidolytic activity [1]: 0.26 nM
Ki [2]: 0.0044 nM
Ki [3]: 0.001 nM
Ki [4]: 1500 nM
fold more potent than variegin (Ki) [5]: > 70 fold
fold stronger affinity than avathrin and variegin [5]: > 200 fold
IC50, inhibition of thrombin amidolytic activity [6]: 0.4 nM
Binder: SDEAVRAIPKMYSTAPPGDFEEIPDDAIEE (modifications not checked) [ultravariegin]
